Measured values published in PMC9973356, “Cryo-EM Structures of AcrD Illuminate a Mechanism for Capturing Aminoglycosides from Its Central Cavity” (mBio, 2023).
Where “and” joins values, the source holds several entries; their conditions need not be identical. Equal entries are not always repeated.

Molecular target: the molecule itself
Experiment: cryo-EM structure; single-particle cryo-EM of 10 µM AcrD in MSP1E3D1 nanodiscs (E. coli total extract lipid; 20 mM Tris-HCl pH 7.5, 100 mM NaCl), no gentamicin; particle ratio of trimer to dimer to monomer approximately 3:5:2

B1: Escherichia coli acriflavine resistance protein D (AcrD) (natural protein)
chain: MANFFIDRPIFAWVLAILLCLTGTLAIFSLPVEQYPDLAPPNVRVTANYPGASAQTLENTVTQVIEQNMTGLDNLMYMSSQSSGTGQASVTLSFKAGTDPDEAVQQVQNQLQSAMRKLPQAVQNQGVTVRKTGDTNILTIAFVSTDGSMDKQDIADYVASNIQDPLSRVNGVGDIDAYGSQYSMRIWLDPAKLNSFQMTAKDVTDAIESQNAQIAVGQLGGTPSVDKQALNATINAQSLLQTPEQFRDITLRVNQDGSEVRLGDVATVEMGAEKYDYLSRFNGKPASGLGVKLASGANEMATAELVLNRLDELAQYFPHGLEYKVAYETTSFVKASIEDVVKTLLEAIALVFLVMYLFLQNFRATLIPTIAVPVVLMGTFSVLYAFGYSVNTLTMFAMVLAIGLLVDDAIVVVENVERIMSEEGLTPREATRKSMGQIQGALVGIAMVLSAVFVPMAFFGGTTGAIYRQFSITIVAAMVLSVLVAMILTPALCATLLKPLKKGEHHGQKGFFAWFNQMFNRNAERYEKGVAKILHRSLRWIVIYVLLLGGMVFLFLRLPTSFLPLEDRGMFTTSVQLPSGSTQQQTLKVVEQIEKYYFTHEKDNIMSVFATVGSGPGGNGQNVARMFIRLKDWSERDSKTGTSFAIIERATKAFNQIKEARVIASSPPAISGLGSSAGFDMELQDHAGAGHDALMAARNQLLALAAENPELTRVRHNGLDDSPQLQIDIDQRKAQALGVAIDDINDTLQTAWGSSYVNDFMDRGRVKKVYVQAAAPYRMLPDDINLWYVRNKDGGMVPFSAFATSRWETGSPRLERYNGYSAVEIVGEAAPGVSTGTAMDIMESLVKQLPNGFGLEWTAMSYQERLSGAQAPALYAISLLVVFLCLAALYESWSVPFSVMLVVPLGVIGALLATWMRGLENDVYFQVGLLTVIGLSAKNAILIVEFANEMNQKGHDLFEATLHACRQRLRPILMTSLAFIFGVLPMATSTGAGSGGQHAVGTGVMGGMISATILAIYFVPLFFVLVRRRFPLKPRPE
notes: AcrD, E. coli, full length; Seen as trimers, dimers and monomers in the same nanodisc sample; The nanodisc scaffold protein MSP1E3D1 (Sigma-Aldrich) is only a tool; also called AcrD aminoglycoside efflux pump; apo-AcrD
- stoichiometry N: 3 and 2
